Assay results from patent US12258430B2, “Compositions and methods for labeling and modulation of cells in vitro and in vivo” (President and Fellows of Harvard College, priority 2018, dated 2025).

How the values were obtained:
[1] = test system: DC2.4 cells; experiment: Metabolic labeling of DC2.4 cells with azido-sugars, detected by DBCO agents (flow cytometry); type: cell-based; settings: 3 days incubation, DBCO-Cy5 staining 30 min; vs control cells without pretreatment
Procedure: It was first tested whether tetraacetyl-N-azidoacetylmannosamine (Ac4ManAz), a commonly used metabolic labeling agent, can label DC2.4 cell line with azido groups (FIG. 2A). Ac4ManAz was synthesized following the reported procedure (Wang, H. et al. Selective in vivo metabolic cell-labeling-mediated cancer targeting. Nature Chemical Biology 13, 415-424 (2017)). […] For flow cytometry analysis of azido-labeled cells, cells were seeded in a 24-well plate at a density of 1×10^4 cells per well and allowed to attach for 12 hours. Azido-sugar was added and incubated with cells for 72 hours. […] Cells were then collected via a cell scraper, re-suspended in FACS buffer, and analyzed by flow cytometry.

[2] = Water-solubility of azido-sugar; type: physicochemical
[3] = test system: azido-labeled BMDCs; experiment: In vitro capture of DBCO-OVA and DBCO-CpG by azido-labeled BMDCs; type: cell-based; settings: BMDCs labeled with G400 NP three days, 30 min incubation; vs FITC-OVA
Procedure: Another objective of this invention was to utilize azido-labeled DCs, as achieved above, for LN-targeted delivery of DBCO-bearing antigens and adjuvants. It was first studied whether azido-labeled DCs could covalently capture DBCO-ovalbumin (OVA) and DBCO-CpG in vitro. BMDCs were labeled with G400 NP for three days and incubated with DBCO/FITC-OVA or FITC-OVA for 30 min. […] Similarly, BMDCs pretreated with G400 NP were able to capture more DBCO/Cy5-CpG than control BMDCs (FIGS. 5C and 5D).

[4] = test system: azido-labeled DCs in dLNs; experiment: In vivo LN-targeted delivery of DBCO-OVA; design: species or system C57BL/6 mice; settings: for A647 signal of LNs: 48 h post injection
Text: It was next studied whether the azido-labeled DCs in dLNs can mediate targeted delivery of DBCO-OVA via Click chemistry.

In the case of `CC(=O)OC[C@H]1OC(OC(C)=O)[C@@H](NC(=O)CN=[N+]=[N-])[C@@H](OC(C)=O)[C@@H]1OC(C)=O` (some centres unmarked) [Ac4ManAz, tetraacetyl-N-azidoacetylmannosamine], the “Cy5 signal of DC2.4 cells” value [1] is reported as “significantly enhanced Cy5 signal” and the water-solubility [2] is reported as “poor”.

B1: DBCO/FITC-OVA: DBCO- and FITC-modified ovalbumin (conjugate, UniProt P01012 2-386, looked up)
Ovalbumin: GSIGAASMEFCFDVFKELKVHHANENIFYCPIAIMSALAMVYLGAKDSTRTQINKVVRFDKLPGFGDSIEAQCGTSVNVHSSLRDILNQITKPNDVYSFSLASRLYAEERYPILPEYLQCVKELYRGGLEPINFQTAADQARELINSWVESQTNGIIRNVLQPSSVDSQTAMVLVNAIVFKGLWEKAFKDEDTQAMPFRVTEQESKPVQMMYQIGLFRVASMASEKMKILELPFASGTMSMLVLLPDEVSGLEQLESIINFEKLTEWTSSNVMEERKIKVYLPRMKMEEKYNLTSVLMAMGITDVFSSSANLSGISSAESLKISQAVHAAHAEINEAGREVVGSAEAGVDAASVSEEFRADHPFLFCIKHIATNAVLFFGRCVSP
modifications: FITC, DBCO
notes: DBCO- and FITC-modified ovalbumin
In the case of B1, the “cellular uptake by azido-labeled BMDCs” value [3] is reported as “improved cellular uptake”.

B2: A647-OVA: Alexa fluor647-conjugated OVA without DBCO (conjugate, UniProt P01012 2-386, looked up)
Ovalbumin: GSIGAASMEFCFDVFKELKVHHANENIFYCPIAIMSALAMVYLGAKDSTRTQINKVVRFDKLPGFGDSIEAQCGTSVNVHSSLRDILNQITKPNDVYSFSLASRLYAEERYPILPEYLQCVKELYRGGLEPINFQTAADQARELINSWVESQTNGIIRNVLQPSSVDSQTAMVLVNAIVFKGLWEKAFKDEDTQAMPFRVTEQESKPVQMMYQIGLFRVASMASEKMKILELPFASGTMSMLVLLPDEVSGLEQLESIINFEKLTEWTSSNVMEERKIKVYLPRMKMEEKYNLTSVLMAMGITDVFSSSANLSGISSAESLKISQAVHAAHAEINEAGREVVGSAEAGVDAASVSEEFRADHPFLFCIKHIATNAVLFFGRCVSP
modifications: Alexa Fluor 647
notes: Alexa fluor647-conjugated OVA without DBCO
In the case of B2, the “A647 signal of LNs” value [4] is reported as “dramatically decreased”.

B3: DBCO/A647-OVA: Alexa fluor647 (A647)-conjugated DBCO-OVA (conjugate, UniProt P01012 2-386, looked up)
Ovalbumin: GSIGAASMEFCFDVFKELKVHHANENIFYCPIAIMSALAMVYLGAKDSTRTQINKVVRFDKLPGFGDSIEAQCGTSVNVHSSLRDILNQITKPNDVYSFSLASRLYAEERYPILPEYLQCVKELYRGGLEPINFQTAADQARELINSWVESQTNGIIRNVLQPSSVDSQTAMVLVNAIVFKGLWEKAFKDEDTQAMPFRVTEQESKPVQMMYQIGLFRVASMASEKMKILELPFASGTMSMLVLLPDEVSGLEQLESIINFEKLTEWTSSNVMEERKIKVYLPRMKMEEKYNLTSVLMAMGITDVFSSSANLSGISSAESLKISQAVHAAHAEINEAGREVVGSAEAGVDAASVSEEFRADHPFLFCIKHIATNAVLFFGRCVSP
modifications: Alexa Fluor 647, DBCO
In the case of B3, the “percentage of A647-OVA+ DCs in dLNs” value ([4]; 6 h post injection) is reported as roughly 43%, the “A647 fluorescent signal in dLNs” value ([4]; 6 h post injection, vs A647-OVA) is reported as “significantly enhanced A647 fluorescent signal” and the “accumulation in dLNs” value ([4]; 24 h post injection, vs A647-OVA) is reported as “significantly improved accumulation”. The “A647 signal of LNs” value [4] was “dramatically decreased”.
